In patent publication US20220402980A1, “CHROMOGRANIN A-DERIVED PEPTIDES AND USES THEREOF” (OSPEDALE SAN RAFFAELE S.R.L., priority 2019, published 2022) one finds Ki data, which are given here for one molecule.

For the assay, the target named is wild-type human integrin α5β1 (octyl β-D-glucopyranoside preparation) (human), P08648. As to the kind of experiment: competitive binding assay on α5β1-coated plates, isoDGR/STV-HRP probe.
Sequence of wild-type human integrin α5β1 (octyl β-D-glucopyranoside preparation) (human), P08648 (P08648 42-1049, chain 1 of 2): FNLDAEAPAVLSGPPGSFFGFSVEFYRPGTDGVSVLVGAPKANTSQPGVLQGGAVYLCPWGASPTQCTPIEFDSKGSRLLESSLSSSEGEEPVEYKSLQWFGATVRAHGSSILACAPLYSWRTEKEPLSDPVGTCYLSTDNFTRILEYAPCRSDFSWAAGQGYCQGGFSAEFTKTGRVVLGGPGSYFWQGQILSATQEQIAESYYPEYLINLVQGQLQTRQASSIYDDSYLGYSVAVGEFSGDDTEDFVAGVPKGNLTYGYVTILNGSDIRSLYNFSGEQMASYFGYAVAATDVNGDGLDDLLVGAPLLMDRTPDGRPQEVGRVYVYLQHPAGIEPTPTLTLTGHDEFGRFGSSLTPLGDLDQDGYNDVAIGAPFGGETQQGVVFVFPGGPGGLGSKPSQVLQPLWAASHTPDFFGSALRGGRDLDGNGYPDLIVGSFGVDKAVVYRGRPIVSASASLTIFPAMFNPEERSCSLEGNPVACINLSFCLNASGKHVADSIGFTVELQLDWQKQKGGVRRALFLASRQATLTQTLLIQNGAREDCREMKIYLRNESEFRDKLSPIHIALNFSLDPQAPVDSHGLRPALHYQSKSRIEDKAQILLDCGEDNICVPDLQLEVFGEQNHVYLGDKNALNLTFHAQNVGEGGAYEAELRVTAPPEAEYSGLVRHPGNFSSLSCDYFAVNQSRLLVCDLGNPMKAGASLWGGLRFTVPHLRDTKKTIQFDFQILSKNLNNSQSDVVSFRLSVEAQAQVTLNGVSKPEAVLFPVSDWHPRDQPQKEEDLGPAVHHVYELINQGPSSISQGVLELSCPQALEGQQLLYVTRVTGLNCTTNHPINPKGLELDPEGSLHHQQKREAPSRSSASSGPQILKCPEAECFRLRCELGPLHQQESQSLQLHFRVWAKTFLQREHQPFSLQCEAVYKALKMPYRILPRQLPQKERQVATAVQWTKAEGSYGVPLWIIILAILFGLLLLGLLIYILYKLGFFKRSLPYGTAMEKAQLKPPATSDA
Sequence of wild-type human integrin α5β1 (octyl β-D-glucopyranoside preparation) (human), P08648 (P05556 21-798, chain 2 of 2, further chain): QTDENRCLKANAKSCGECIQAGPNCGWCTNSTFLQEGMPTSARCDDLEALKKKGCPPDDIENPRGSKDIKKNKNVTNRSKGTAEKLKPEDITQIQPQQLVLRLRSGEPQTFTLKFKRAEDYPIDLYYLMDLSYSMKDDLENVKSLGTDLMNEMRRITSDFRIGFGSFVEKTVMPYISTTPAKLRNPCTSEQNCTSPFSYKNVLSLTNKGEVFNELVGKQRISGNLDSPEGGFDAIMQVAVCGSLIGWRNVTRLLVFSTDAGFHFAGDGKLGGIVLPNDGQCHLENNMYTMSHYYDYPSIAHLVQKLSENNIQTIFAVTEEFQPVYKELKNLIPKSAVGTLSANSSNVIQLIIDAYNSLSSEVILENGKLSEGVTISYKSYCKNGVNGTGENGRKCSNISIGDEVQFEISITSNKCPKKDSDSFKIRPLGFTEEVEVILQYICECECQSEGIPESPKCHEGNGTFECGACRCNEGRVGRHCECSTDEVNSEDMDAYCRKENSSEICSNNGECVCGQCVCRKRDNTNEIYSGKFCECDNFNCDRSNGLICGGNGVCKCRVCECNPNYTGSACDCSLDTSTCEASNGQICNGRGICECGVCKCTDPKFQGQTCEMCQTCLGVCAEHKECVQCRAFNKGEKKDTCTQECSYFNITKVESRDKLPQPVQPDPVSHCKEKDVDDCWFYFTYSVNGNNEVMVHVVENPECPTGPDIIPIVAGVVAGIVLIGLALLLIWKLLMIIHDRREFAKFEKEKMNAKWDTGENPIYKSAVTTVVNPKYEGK

One may read the Ki as the dissociation constant of the complex between target and ligand, obtained from inhibition or displacement. Lower therefore signals higher affinity. Take NAVPNLRGDLQVLAQKVART (modifications not checked) [foot and mouth disease virus-derived peptide A20FMDV2]: the Ki amounted to 2320 nM.
